A short description of series [1]: ATP dose-response of purified mScarlet-ε-NanoLuc, luminescence BRET ratio on microplate reader. Type of series: binding. The settings on record: purified protein; for BRET ratio: n=3. The text has this:
(§1) Protein Engineering and Library Screen. Sensors were constructed by Gibson Assembly using the NEB HiFi kit, sub-cloned into the pRSETB vector for expression as His-tagged protein in BL21(DE3) E. coli, and purified by nickel-affinity chromatography. CeNL/pcDNA3 was a gift from Takeharu Nagai (Addgene plasmid #85199), pcDNA3-mNeonGreen was a gift from Richard Day (Indiana University), pCytERm-mScarlet_N1 was a gift from Dorus Gadella (Addgene plasmid #85066), and pBad-HisB-RRvT (Addgene plasmid #87364) and pBad-HisB-GRvT (Addgene plasmid #87363) were gifts from Robert Campbell. The fluorescence and luminescence ATP dose-response curves for purified protein solutions were measured on a BioTek Synergy H4 multi-mode microplate reader at ambient temperature. Luminescence was also measured using a Spectral Instruments Ami HT. Plasmids generated in this study are distributed via Addgene.
The fluorescence and luminescence of purified sensor proteins were investigated in assay buffer (50 mM MOPS-KOH, 50 mM KCl, 0.5 mM MgCl2, and 0.05% Triton X-100, pH 7.3) in a 96-well plate using a BioTek Synergy H4 multi-mode microplate reader at ambient temperature. For FRET library screening, 420/50 and 485/20 nm excitation filters and 485/20, 528/20, and 620/15 nm emission filters were used. For BRET screening, 20 μM coelenterazine-h was used as a substrate of NanoLuc and 450/50, 485/20, 528/20, and 620/15 nm emission filters were used. For characterization of mScarlet-ε-NanoLuc, 20 μM coelenterazine-h was applied to a reaction solution containing the purified sensor protein and 0-10 mM ATP in assay buffer. Luminescence spectra were scanned from 400 to 650 nm. Emissions of NanoLuc and mScarlet were measured using 450/50 and 620/15 nm emission filters, respectively, and the BRET efficiency was obtained by calculating the emission ratio of mScarlet/NanoLuc. Luminescence was also measured using a Spectral Instruments Ami HT with 510/20 and 650/20 nm emission filters (binning 2×2, FOV 25 cm, f-stop 1.2). Purified mScarlet-ε-NanoLuc protein in assay buffer with 0-10 mM ATP was imaged with a 1 sec exposure time after the addition of 20 μM coelenterazine-h. For measurements at different concentrations (1-100 nM) of mScarlet-ε-NanoLuc protein, the purified protein was mixed with 10 mM ATP or 0 mM ATP and imaged after the addition of 20 μM coelenterazine-h with a 5 sec exposure time for a total 30 min. Regions of interest were drawn over each well for all filter sets, and the average radiance was determined.
(In general: Bioluminescence resonance energy transfer reports proximity on the nanometre scale.)

Series [2] in a line: Library screen: FRET and BRET dynamic range of purified sensors after addition of saturating ATP. In kind it is binding.
Description: as §1, with “Plasmids generated in this study are distributed via Addgene.” left out
(§2) The fluorescence and luminescence of purified sensor proteins were investigated in assay buffer (50 mM MOPS-KOH, 50 mM KCl, 0.5 mM MgCl2, and 0.05% Triton X-100, pH 7.3) in a 96-well plate using a BioTek Synergy H4 multi-mode microplate reader at ambient temperature. […] Luminescence spectra were scanned from 400 to 650 nm. Emissions of NanoLuc and mScarlet were measured using 450/50 and 620/15 nm emission filters, respectively, and the BRET efficiency was obtained by calculating the emission ratio of mScarlet/NanoLuc. […]

Series [3] in a line: Ratiometric BRET imaging of purified mScarlet-ε-NanoLuc protein on SI Ami HT whole-animal imaging system. In kind it is binding. Particulars: protein solutions.
Description: as §1, with “Plasmids generated in this study are distributed via Addgene.” left out
as §2

In series [4] the test system is HEK293A cells. The series can be described thus: Live single-cell BRET microscopy with metabolic inhibition. In kind it is cell-based. Particulars: metabolic inhibition with 10 mM 2DG and 2.5 μM oligomycin A, ambient temperature. As for the experimental part:
Live single-cell microscopy. The sensor genes were sub-cloned into the GW1 mammalian expression vector, and HEK293A cells were transfected by the calcium phosphate method. Cells were imaged with 30 second exposure times and 2 minute imaging interval on an Olympus IX83 microscope with a 40× 1.35 NA Apo oil objective, an Andor Xyla 4.2 sCMOS camera at 2-by-2 pixel binning, and 470/24 nm and 632/60 nm emission filters. Just prior to the addition of furimazine, well volume was exchanged twice with imaging media without glucose. After adding furimazine, a three point baseline was acquired. […] Cells were imaged for ˜30 minutes until luminescence decayed to background. Image backgrounds were subtracted before calculating the ratio images of the luminescence channels using ImageJ. […]
After removing the plate from the incubator, cell growth media was exchanged for imaging media (15 mM HEPES, 120 mM NaCl, 3 mM KCl, 3 mM NaHCO3, 1.25 mM NaH2PO4, 10 mM glucose, 2 mM CaCl2, 1 mM MgCl2). Imaging regions were determined using mScarlet fluorescence and DIC. […] Cells were imaged until luminescence decayed to background (20-30 minutes). Image backgrounds were subtracted (rolling ball radus 100 pixels) before calculating the ratio images of the luminescence channels using ImageJ. […] For FIG. 3, binary masks were generated using channel luminescence to remove pixels in ratio image corresponding to background. […]

Series [5] concerns HEK293A cells. The series can be described thus: Bioluminescence imaging of adherent sensor-expressing cells in Spectral Ami, glucose vs metabolic inhibitors. In kind it is cell-based. Particulars: for mScarlet-ε-NanoLuc ratio signal: n=6. The protocol:
HEK293A cells were transfected with plasmids carrying mScarlet-ε-NanoLuc by calcium phosphate method. One day after transfection, cells were passaged onto a 96-well plate at different cell densities from 1,250 to 20,000 cells per well. After an additional 24-48 hours, imaging was performed using a spectral Ami with 510/20 nm and 650/20 nm filters (5 sec exposure time, binning 2×2, FOV 25 cm, f-stop 1.2) immediately after the addition of 20 μM coelenterazine-h.
We first validated that we could measure differences in energy metabolism using adherent cell cultures. HEK293A cells expressing mScarlet-ε-NanoLuc were seeded at different densities, from 62,500 cells/cm^2 down to 4,000 cell/cm^2 to determine the sensitivity of detection in the Spectral Ami system. […] Thus, the sensor effectively detects metabolic differences in live cells in a dish within the animal imager.

Series [6] can be described thus: Whole-animal imaging of purified sensor protein placed subcutaneously in mice. Type of series: in vivo, Balb/c mice. Particulars: 10 mM vs 0 mM ATP, subcutaneous hindlimb, unshaved mice, n=3. The protocol:
(§3) Animal Imaging System. All animal procedures were performed in strict accordance with recommendations provided in the National Institutes of Health (NIH) Guide for the Care and Use of Laboratory Animals, according to protocols approved by the Purdue Animal Care and Use Committee and the Purdue University Laboratory Animal Program to minimize pain and suffering. Male and female adult Balb/c and FVB mice were sacrificed and then injected with protein solution or live cells subcutaneously in the hind limb area. NanoLuc substrate, either 20 μM coelenterazine-h or 0.5× Promega Nano-Glo furimazine solution, was mixed with the sample just prior to injection. Protein, cells, and animals were imaged at ambient temperature. […] Therefore, in this study we used the SI Ami HT equipped with a 510/20 nm and 650/20 nm emission filters for all subsequent experiments.
For imaging of purified protein in mice, mScarlet-ε-NanoLuc protein pre-equilibrated with 0 mM or 10 mM ATP was mixed with 20 μM coelenterazine-h. The reaction mixture was enclosed in a custom plastic tube and placed subcutaneously in the left (0 mM ATP) and right (10 mM ATP) hindlimb areas of adult Balb/c mice carcass. The sequential imaging was immediately performed using a spectral Ami with 510/20 and 650/20 nm filters (30 sec exposure time, binning 2×2, FOV 25, f-stop 1.2). […]

Series [7] relates to HEK293A cells. The experiment in a line: Whole-animal imaging of sensor-expressing live cell suspensions injected subcutaneously in mice. Type of series: in vivo. The settings on record: 10^6 live cells subcutaneous, unshaved adult FVB mice, n=6. As for the experimental part: as §3
For imaging of purified protein in mice, mScarlet-ε-NanoLuc protein pre-equilibrated with 0 mM or 10 mM ATP was mixed with 20 μM coelenterazine-h. […]
We next carried out ratiometric imaging of live cells injected in whole animals. […] The total luminescence intensity provides an indicator of the total protein expression level, and critically we observed that the BRET ratio was dependent on the metabolic condition only and was independent of the level of luminescence intensity (FIG. 5).

The source of these data is patent publication US20200400655A1, “RATIOMETRIC BRET MEASUREMENTS OF ATP WITH A GENETICALLY-ENCODED LUMINESCENT SENSOR” (Purdue Research Foundation, priority 2019, published 2020).

B1: mScarlet-ε-NanoLuc: BRET-only ATP sensor: mScarlet (N-terminus), B. subtilis ε subunit, NanoLuc (C-terminus); SEQ ID NO:1 (protein)
chain: MVSKGEAVIKEFMRFKVHMEGSMNGHEFEIEGEGEGRPYEGTQTAKLKVTKGGPLPFSWDILSPQFMYGSRAFTKHPADIPDYYKQSFPEGFKWERVMNFEDGGAVTVTQDTSLEDGTLIYKVKLRGTNFPPDGPVMQKKTMGWEASTERLYPEDGVLKGDIKMALRLKDGGRYLADFKTTYKAKKPVQMPGAYNVDRKLDITSHNEDYTVVEQYERSEGRHSTGRHIDMKTVKVNITTPDGPVYDADIEMVSVRAESGDLGILPGHIPTKAPLKIGAVRLKKDGQTEMVAVSGGTVEVRPDHVTINAQAAETAEGIDKERAEAARQRAQERLNSQSDDTDIRRAELALQRALNRLDVAGKANEFMLEDFVGDWRQTAGYNLDQVLEQGGVSSLFQNLGVSVTPIQRIVLSGENGLKIDIHVIIPYEGLSGDQMGQIEKIFKVVYPVDDHHFKVILHYGTLVIDGVTPNMIDYFGRPYEGIAVFDGKKITVTGTLWNGNKIIDERLINPDGSLLFRVTINGVTGWRLCERILA
modifications: mScarlet-e-NanoLuc
As to B1, the BRET ratio was 0.0063±0.0001 in series [1] (0 mM ATP) and 0.0324±0.009 in series [1] (10 mM ATP). Also, the “BRET ratio stability over time during luminescence intensity decay” value in series [1] is “stable over time”. Also, the “maximal change in BRET ratio upon ATP saturation” value in series [1] is recorded as “greater than 4 fold”. The “Fold-Change in Ratio BRET” value in series [2] (after addition of saturating ATP, purified protein, 20 μM coelenterazine-h) was 5.12 ± 0.18. In addition, in series [2] (purified sensor, zero to saturating ATP), the “change in the BRET ratio upon saturation with ATP” value worked out at 5 fold. In addition, the “dynamic range in ATP dose response” value in series [3] is reported as 5 fold. The “change in the absolute BRET ratio” value in the series on HEK293A cells [4] was −71%. Also, the “difference in ratio signal, glucose vs metabolic inhibitors” value with HEK293A cells [5] was roughly 3 fold. Further, the mScarlet-ε-NanoLuc ratio signal is 0.29±0.04 in the series with HEK293A cells [5] (addition of glucose); 0.11±0.01 in the series with HEK293A cells [5] (metabolic inhibitors 2DG and oligomycin A). Further, in series [6], the “difference in the ratio with vs without ATP imaged through tissue and fur” value was “greater than 3 fold”. Moreover, in the series with HEK293A cells [7], the “ratio difference between glucose and inhibitor-treated cells through tissue and fur, compared with cell suspensions in a dish” value was “same ratio difference”.
